Source: paper PMC10187114

How the values were obtained:
[1] = biological target: VPS35L (human) (UniProt Q7Z3J2); assay: SEC; Retriever co-expressed in insect cells, affinity purification then size-exclusion chromatography (Superdex200, 25 mM HEPES pH 8.0, 300 mM NaCl, 2 mM β-mercaptoethanol, 4°C)
[2] = biological target: VPS29 (recombinant) (human) (UniProt Q9UBQ0); assay: ITC; VPS35L peptides at 600 μM titrated into 20 μM VPS29, 100 mM Tris pH 7.4, 300 mM NaCl, 25°C, single site model

Row | stoichiometry N [1] | Kd [2] [µM] | Substance
1 | 1 | – | 3xStrepII-VPS26C (from UniProt O14972 1-297) (natural protein)
2 | – | 6.8 | VPS35L (28-37) peptide (from UniProt Q7Z3J2 28-37)
